Read-outs that look alike come from different tables or passages of the source.
Legend:
[1] = target: T1, IGF-IR on human tumour cells (H292, MCF-7, RH41) (human, UniProt P08069 31-1367); experiment: cell-based or functional assay
[2] = target: T1, IGF-IR on human tumour cells (H292, …); experiment: cell-based or functional assay; remark: listed apart in the source
[3] = target: T1, IGF-IR on human tumour cells (H292, …); experiment: [125I]-IGF-I competition on MCF-7 cells
[4] = target: T2, IGF1R-Fc (extracellular domain of human IGF1R aa 1-932 fused to hinge and constant regions of human IgG1) (human, UniProt P08069 31-932); experiment: SPR Biacore, IGF-IR-Fc captured on Protein A
T2 construct: range 1-932; made in house by transient transfection, purified on Protein A; also called IGF-IR-Fc; not shown: hinge and constant regions of human IgG1

[5] = target: T1, IGF-IR on human tumour cells (H292, …); experiment: cell-based or functional assay; remark: listed apart in the source
[6] = target: T2, IGF1R-Fc (extracellular domain of human …); experiment: SPR Biacore
[7] = target: T2, IGF1R-Fc (extracellular domain of human …)
[8] = target: T1, IGF-IR on human tumour cells (H292, …); experiment: IGF-I competition for IGF-IR binding
[9] = target: EGFR on the surface of human tumour cells (A431, H292) (human, UniProt P00533 25-1210); experiment: cell-based or functional assay
[10] = target: T1, IGF-IR on human tumour cells (H292, …); experiment: cell-based or functional assay; remark: listed apart in the source

B1: I1 IGF-IR 10Fn3-based binder, His-tagged monomer (designed binder)
chain: MGVSDVPRDLEVVAATPTSLLISWSARLKVARYYRITYGETGGNSPVQEFTVPKNVYTATISGLKPGVDYTITVYAVTRFRDYQPISINYRTEIDKPSQHHHHHH
H292 pIGF-IR IC50 (ELISA) [1]: 0.2 nM | Inhibition of RH41 Proliferation IC50 [2]: 28 nM | Inhibition of pIGFR IC50 [2]: 0.2 nM | IC50 [3]: 8 nM | Kd [4]: 0.11 nM | IC50, IGF1-stimulated IGFR phosphorylation, H292 cells, ELISA [5]: 0.4 nM | Kd [6]: 0.11 nM | Kd [7]: 0.11 nM | koff [7]: 0.000434 s⁻¹ | kon [7]: 3.84e+06 M⁻¹ s⁻¹ | IC50 [8]: 8 nM | inhibition of EGF-stimulated EGFR phosphorylation (Y1068), H292 cells, ELISA, IC50 [9]: > 6210 nM | inhibition of IGF1-stimulated IGF1R phosphorylation (Y1131), H292 cells, ELISA, IC50 [10]: 18 nM

— US20180037631A1 (Bristol-Myers Squibb, published 2018)
